The values below come from FireProtDB (doi:10.1016/j.jmb.2004.09.082).

The conditions of this data set: Escherichia coli (strain K12); pH 7.8; 25 °C; GdnHCl; Chromatography; Tris-HCl 5 mM; KCl 200 mM; reversible: yes; whole UniProt chain shown.

B1: Co-chaperonin GroES wild type, P0A6F9 (protein)
chain: MNIRPLHDRVIVKRKEVETKSAGGIVLTGSAAAKSTRGEVLAVGNGRILENGEVKPLDVKVGDIVIFNDGYGVKSEKIDNEEVLIMSESDILAIVEA
In the case of B1, the denaturant m value is 2.3 kcal/mol/M and the unfolding free energy came to 2.3 kcal/mol.
